Measured values from patent publication US20190225692A1 (JUNO THERAPEUTICS, published 2019).

Key:
[1] = target: HPV 16 E7(11-19) peptide in the context of HLA-A02:01 on target cells (human; HPV 16); assay: cell-based or functional assay
[2] = target: HPV 16 E6(29-38) peptide in the context of HLA-A02:01 on target cells (human; HPV 16); assay: cell-based or functional assay
[3] = target: T1, HLA-A2/E6 (29-38) tetramer (human; HPV 16); assay: tetramer flow cytometry; transfected Jurkat-derived cells, CD8+ population
T1 construct: also called E6(29-38) peptide-MHC tetramer; E6(29-38)-loaded tetramer
Method: (§1) For transfection, the CD4+ and CD4+/CD8+ cell mixtures were transiently transfected with TCR-encoding plasmids and 48 hours after transfection, cells were assessed by flow cytometry for (1) binding of the target peptide in the context of an MHC molecule (HLA:A02:01) by staining with an E6(29-38) peptide- or an E7(11-19) peptide-MHC tetramer reagent, and/or (2) CD8+ independent binding of the target by co-staining the tetramer-labeled cells with an anti-CD8 antibody.

[4] = target: T1, HLA-A2/E6 (29-38) tetramer; assay: tetramer flow cytometry; transfected 1:1 CD4+ and CD4+/CD8+ Jurkat-derived cells;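 further: cell mixtures transiently transfected with TCR-encoding plasmids, analysed by flow cytometry 48 h later after HLA-A*02:01 E6 tetramer staining combined with anti-CD8 antibody co-staining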
Method: as §1

[5] = target: T1, HLA-A2/E6 (29-38) tetramer; assay: tetramer staining of clonal T cell line, flow cytometry

B1: modified version of TCR 5 (codon optimized, cysteine modified) (TCR, V domains shown)
V domain 1: AQKITQTQPGMFVQEKEAVTLDCTYDTSDQSYGLFWYKQPSSGEMIFLIYQGSYDEQNATEGRYSLNFQKARKSANLVISASQLGDSAMYFCAMREGTGTSYGKLTFGQGTILTVHP
V domain 2: DVKVTQSSRYLVKRTGEKVFLECVQDMDHENMFWYRQDPGLGLRLIYFSYDVKMKEKGDIPEGYSVSREKKERFSLILESASTNQTSMYLCASSPWGETHQPQHFGDGTRLSILE
% CD8+/IC IFNγ+; transduced primary CD8+ T cells with T2 cells pulsed with 10 uM E7(11-19) peptide (control peptide), E:T 10:1, 4 h [1]: 7.22% | % CD8+/IC IFNγ+; transduced primary CD8+ T cells with T2 cells pulsed with 10 uM E6(29-38) peptide, E:T 10:1, 4 h [2]: 43.7%

B2: modified version of TCR 4 (codon optimized, cysteine modified) (TCR)
TCR alpha: DAKTTQPNSMESNEEEPVHLPCNHSTISGTDYIHWYRQLPSQGPEYVIHGLTSNVNNRMASLAIAEDRKSSTLILHRATLRDAAVYYCILLVIRGTSYGKLTFGQGTILTVHPNIQNPDPAVYQLRDSKSSDKSVCLFTDFDSQTNVSQSKDSDVYITDKCVLDMRSMDFKSNSAVAWSNKSDFACANAFNNSIIPEDTFFPSPESSCDVKLVEKSFETDTNLNFQNLSVIGFRILLLKVAGFNLLMTLRLWSS
TCR beta: DTGVSQDPRHKITKRGQNVTFRCDPISEHNRLYWYRQTLGQGPEFLTYFQNEAQLEKSRLLSDRFSAERPKGSFSTLEIQRTEQGDSAMYLCASSPGGGNTEAFFGQGTRLTVVEDLNKVFPPEVAVFEPSEAEISHTQKATLVCLATGFFPDHVELSWWVNGKEVHSGVCTDPQPLKEQPALNDSRYCLSSRLRVSATFWQNPRNHFRCQVQFYGLSENDEWTQDRAKPVTQIVSAEAWGRADCGFTSVSYQQGVLSATILYEILLGKATLYAVLVSALVLMAMVKRKDF
% CD8+/IC IFNγ+; transduced primary CD8+ T cells with T2 cells pulsed with 10 uM E7(11-19) peptide (control peptide), E:T 10:1, 4 h [1]: 2.5% | % CD8+/IC IFNγ+; transduced primary CD8+ T cells with T2 cells pulsed with 10 uM E6(29-38) peptide, E:T 10:1, 4 h [2]: 94.2%

B3: modified version of TCR 3 (codon optimized, cysteine modified) (TCR)
TCR alpha: AQKITQTQPGMFVQEKEAVTLDCTYDTSDQSYGLFWYKQPSSGEMIFLIYQGSYDEQNATEGRYSLNFQKARKSANLVISASQLGDSAMYFCAMREGRGFKTIFGAGTRLFVKANIQKPDPAVYQLRDSKSSDKSVCLFTDFDSQTNVSQSKDSDVYITDKCVLDMRSMDFKSNSAVAWSNKSDFACANAFNNSIIPADTFFPSPESSCDVKLVEKSFETDTNLNFQNLSVIGFRILLLKVAGFNLLMTLRLWSS
TCR beta: GAGVSQSPRYKVAKRGQDVALRCDPISGHVSLFWYQQALGQGPEFLTYFQNEAQLDKSGLPSDRFFAERPEGSVSTLKIQRTQQEDSAVYLCASSHLAGFTGELFFGEGSRLTVLEDLKNVFPPEVAVFEPSEAEISHTQKATLVCLATGFYPDHVELSWWVNGKEVHSGVCTDPQPLKEQPALNDSRYCLSSRLRVSATFWQNPRNHFRCQVQFYGLSENDEWTQDRAKPVTQIVSAEAWGRADCGFTSESYQQGVLSATILYEILLGKATLYAVLVSALVLMAMVKRKDSRG
% CD8+/IC IFNγ+; transduced primary CD8+ T cells with T2 cells pulsed with 10 uM E7(11-19) peptide (control peptide), E:T 10:1, 4 h [1]: 2.51% | % CD8+/IC IFNγ+; transduced primary CD8+ T cells with T2 cells pulsed with 10 uM E6(29-38) peptide, E:T 10:1, 4 h [2]: 95.1%

B4: modified version of TCR 8 (codon optimized, cysteine modified) (TCR, V domains shown)
V domain 1: KQEVTQIPAALSVPEGENLVLNCSFTDSAIYNLQWFRQDPGKGLTSLLLIQSSQREQTSGRLNASLDKSSGRSTLYIAASQPGDSATYLCAVRPLGNTPLVFGKGTRLSVIA
V domain 2: KVTQSSRYLVKRTGEKVFLECVQDMDHENMFWYRQDPGLGLRLIYFSYDVKMKEKGDIPEGYSVSREKKERFSLILESASTNQTSMYLCASSLWGASTDTQYFGPGTRLTVLE
% CD8+/IC IFNγ+; transduced primary CD8+ T cells with T2 cells pulsed with 10 uM E7(11-19) peptide (control peptide), E:T 10:1, 4 h [1]: 11.4% | % CD8+/IC IFNγ+; transduced primary CD8+ T cells with T2 cells pulsed with 10 uM E6(29-38) peptide, E:T 10:1, 4 h [2]: 95%

B5: modified version of TCR 9 (codon optimized, cysteine modified) (TCR)
TCR alpha: AQKITQTQPGMFVQEKEAVTLDCTYDTSDPSYGLFWYKQPSSGEMIFLIYQGSYDQQNATEGRYSLNFQKARKSANLVISASQLGDSAMYFCAMRTAGGTSYGKLTFGQGTILTVHPNIQNPDPAVYQLRDSKSSDKSVCLFTDFDSQTNVSQSKDSDVYITDKCVLDMRSMDFKSNSAVAWSNKSDFACANAFNNSIIPEDTFFPSPESSCDVKLVEKSFETDTNLNFQNLSVIGFRILLLKVAGFNLLMTLRLWSS
TCR beta: NAGVTQTPKFRVLKTGQSMTLLCAQDMNHEYMYWYRQDPGMGLRLIHYSVGEGTTAKGEVPDGYNVSRLKKQNFLLGLESAAPSQTSVYFCASSYFGTAYEQYFGPGTRLTVTEDLKNVFPPEVAVFEPSEAEISHTQKATLVCLATGFYPDHVELSWWVNGKEVHSGVCTDPQPLKEQPALNDSRYCLSSRLRVSATFWQNPRNHFRCQVQFYGLSENDEWTQDRAKPVTQIVSAEAWGRADCGFTSESYQQGVLSATILYEILLGKATLYAVLVSALVLMAMVKRKDSRG
% CD8+/IC IFNγ+; transduced primary CD8+ T cells with T2 cells pulsed with 10 uM E7(11-19) peptide (control peptide), E:T 10:1, 4 h [1]: 19.5% | % CD8+/IC IFNγ+; transduced primary CD8+ T cells with T2 cells pulsed with 10 uM E6(29-38) peptide, E:T 10:1, 4 h [2]: 91.1% | % cells in E6 tet+/CD8+ quadrant [3]: 42.5% | % cells in E6 tet+/CD8- quadrant [3]: 0.051% | % cells in E6 tet-/CD8+ quadrant [3]: 55.6% | % cells in E6 tet-/CD8- quadrant [3]: 1.89%

B6: modified version of TCR 7 (codon optimized, cysteine modified) (TCR, V domains shown)
V domain 1: KNQVEQSPQSLIILEGKNCTLQCNYTVSPFSNLRWYKQDTGRGPVSLTIMTFSENTKSNGRYTATLDADTKQSSLHITASQLSDSASYICVVSRDNYGQNFVFGPGTRLSVLP
V domain 2: EPEVTQTPSHQVTQMGQEVILRCVPISNHLYFYWYRQILGQKVEFLVSFYNNEISEKSEIFDDQFSVERPDGSNFTLKIRSTKLEDSAMYFCAITDRTNYGYTFGSGTRLTVVE
% CD8+/IC IFNγ+; transduced primary CD8+ T cells with T2 cells pulsed with 10 uM E6(29-38) peptide, E:T 10:1, 4 h [2]: 70.5%

B7: TCR 27 (codon optimized, cysteine modified version) (TCR, V domains shown)
V domain 1: DAKTTQPNSMESNEEEPVHLPCNHSTISGTDYIHWYRQLPSQGPEYVIHGLTSNVNNRMASLAIAEDRKSSTLILHRATLRDAAVYYCILRVPPQSGGYQKVTFGTGTKLQVIP
V domain 2: NAGVTQTPKFQVLKTGQSMTLQCAQDMNHNSMYWYRQDPGMGLRLIYYSASEGTTDKGEVPNGYNVSRLNKREFSLRLESAAPSQTSVYFCASSEFGSLNEKLFFGSGTQLSVLE
% cells in E6 tet+/CD8+ quadrant [3]: 24.5% | % cells in E6 tet+/CD8- quadrant [3]: 0.02% | % cells in E6 tet-/CD8+ quadrant [3]: 73.5% | % cells in E6 tet-/CD8- quadrant [3]: 1.96% | % cells in E6 tet+/CD8+ quadrant [4]: 15.8% | % cells in E6 tet+/CD8- quadrant [4]: 3.5% | % cells in E6 tet-/CD8+ quadrant [4]: 20.1% | % cells in E6 tet-/CD8- quadrant [4]: 60.6%

B8: TCR 10 (native, expressed by clonal T cell line) (TCR, V domains shown)
V domain 1: RKEVEQDPGPFNVPEGATVAFNCTYSNSASQSFFWYRQDCRKEPKLLMSVYSSGNEDGRFTAQLNRASQYISLLIRDSKLSDSATYLCVVNFPSRGAGGTSYGKLTFGQGTILTVHP
V domain 2: DVKVTQSSRYLVKRTGEKVFLECVQDMDHENMFWYRQDPGLGLRLIYFSYDVKMKEKGDIPEGYSVSREKKERFSLILESASTNQTSMYLCASSLSLTGNYGYTFGSGTRLTVVE
binding result [5]: binds
